Data taken from publication PMC11775580.
Changes are numbered by the printed parent chain.

B1: RPRD1B CID domain (residues 2-133), wild type (domain or fragment)
chain: SSFSESALEKKLSELSNSQQSVQTLSLWLIHHRKHAGPIVSVWHRELRKAKSNRKLTFLYLANDVIQNSKRKGPEFTREFESVLVDAFSHVAREADEGCKKPLERLLNIWQERSVYGGEFIQQLKLSMEDSK
B2: RPRD1B CID domain (residues 2-133), Arg114A mutant (domain or fragment)
chain: B1 chain with R113A
B3: RPRD1B CID domain (residues 2-133), Tyr61 to alanine (domain or fragment)
chain: B1 chain with Y60A

Legend:
[1] = target: pSer7 CTD peptide (RNA polymerase II CTD, about two heptads, phosphorylated at Ser7); assay: fluorescence polarisation
[2] = target: pSer2 CTD peptide (RNA polymerase II CTD, about two heptads, phosphorylated at Ser2); assay: fluorescence polarisation

Binder	Kd [1] [µM]	Kd [2] [µM]
B1	32.5	22.5
B2	–	37.9
B3	–	37.8
